No end group written: not given here.
T1: CD1d molecule expressed on JAWS2 cells, P11609
T1 chain: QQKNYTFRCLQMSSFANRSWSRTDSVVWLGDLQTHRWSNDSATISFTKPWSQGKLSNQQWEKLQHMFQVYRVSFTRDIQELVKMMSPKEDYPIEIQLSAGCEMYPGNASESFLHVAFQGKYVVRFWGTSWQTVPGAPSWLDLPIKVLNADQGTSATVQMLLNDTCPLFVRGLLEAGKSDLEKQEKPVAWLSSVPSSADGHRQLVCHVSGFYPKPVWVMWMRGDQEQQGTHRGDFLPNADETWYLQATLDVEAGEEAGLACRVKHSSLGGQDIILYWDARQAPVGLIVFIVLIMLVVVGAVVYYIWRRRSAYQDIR


What was measured:
[1] = target: T cell receptors of NKT cells among spleen CD4+ T cells of hemophilia A mice immunized with Factor VIII; test: fluorochrome-labeled tetramer, 30 minutes at 4 C, Facs
[2] = target: T1, CD1d molecule expressed on JAWS2 cells, …
[3] = target: T cell receptors of CD4+ NKT cells from the spleen of BALB/c mice given intranasal Der p 1; test: tetramer staining of spleen CD4+ T cells, facs

Row | Binder | percentage of cells stained with the tetramers [3] [%] | further results
1 | FCHISSH (peptide-MHC, part only; not given: peptide flanks, CD1d, beta-2 microglobulin, part only, also: loaded on fluorochrome-labelled CD1d tetramers) [CD1d tetramers loaded with peptide of SEQ ID1 (44pept)] |  | % of NKT cells recognizing the tetramer [1]: < 45%
2 | Der p 1 in natural sequence (SEQ ID17) (protein) TNACSINGNAPAEIDLRQMRTVTPIRMQGGCGSCWAFSGVAATESAYLAYRNQSLDLAEQELVDCASQHGCHGDTIPRGIEYIQHNGVVQESYYRYVAREQSCRRPNAQRFGISNYCQIYPPNVNKIREALAQTHSAIAVIIGIKDLDAFRHYDGRTIIQRDNGYQPNYHAVNIVGYSNAQGVDYWIVRNSWDTNWGDNGYGYFAANIDLMMIEEYPYVVIL |  | production of cytokines such as IFN-gamma and IL-4 as markers of NKT activation [2]: a significant production of cytokines was present
3 | mutated Der p 1 (SEQ ID16) (protein) TNACSINGNAPAEIDLRQMRTVTPIRMQGGCGSCWASSGVAATESAYLAYRNQSLDLAEQELVDCASQHGCHGDTIPRGIEYIQHNGVVQESYYRYVAREQSCRRPNAQRFGISNYCQIYPPNVNKIREALAQTSSAIAVIIGIKDLDAFRHYDGRTIIQRDNGYQPNYHAVNIVGYSNAQGVDYWIVRNSWDTNWGDNGYGYFAANIDLMMIEESPYVVIL |  | production of IFN-gamma and IL-4 taken as an indication of NKT activation [2]: NKT cells obtained from mice immunized with natural sequence Der p 1 failed to be activated when incubated in the presence of JAWS2 cells loaded with mutated Der p 1
4 | YPYVVIL (peptide-MHC, part only; not given: CD1d and beta-2 microglobulin, part only) [CD1d tetramers loaded with peptide of SEQ ID15] | 10 | 
5 | HSAIAAVI (peptide-MHC, part only; not given: CD1d and beta-2 microglobulin, part only) [CD1d tetramers loaded with peptide of SEQ ID14] | 10 | 
6 | FSGVAAT (peptide-MHC, part only; not given: CD1d and beta-2 microglobulin, part only) [CD1d tetramers loaded with peptide of SEQ ID13] | 10 | 
